Patent publication US12365732 (23ANDME, dated 2025)
Read-outs that look alike come from different tables or passages of the source.

T1: cy-CD96 (soluble, extracellular domain) (cynomolgus monkey, UniProt P40200 22-516 (human entry), biotinylated in Octet and blocking ELISA)
T1 construct: the assays name only cy-CD96; also called biotinylated cy-CD96
T1 chain: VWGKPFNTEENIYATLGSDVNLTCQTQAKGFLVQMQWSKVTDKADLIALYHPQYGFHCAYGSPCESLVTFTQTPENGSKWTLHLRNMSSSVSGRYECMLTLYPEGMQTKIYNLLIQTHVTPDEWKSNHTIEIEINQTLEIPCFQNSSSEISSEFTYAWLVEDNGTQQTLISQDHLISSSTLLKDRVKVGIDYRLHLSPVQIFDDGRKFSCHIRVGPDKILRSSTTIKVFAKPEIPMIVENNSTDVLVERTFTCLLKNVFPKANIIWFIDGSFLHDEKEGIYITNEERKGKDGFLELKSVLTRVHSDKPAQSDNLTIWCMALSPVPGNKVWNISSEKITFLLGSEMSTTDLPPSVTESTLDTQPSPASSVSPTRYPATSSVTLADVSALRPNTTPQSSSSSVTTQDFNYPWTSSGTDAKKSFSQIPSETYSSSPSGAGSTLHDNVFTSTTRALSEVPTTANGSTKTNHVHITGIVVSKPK

T2: hu-CD96 (soluble, isoform 2 extracellular domain) (human, UniProt P40200 22-516, biotinylated in Octet and blocking ELISA)
T2 construct: the assays name only hu-CD96; also called hCD96; biotinylated hu-CD96
T2 sequence: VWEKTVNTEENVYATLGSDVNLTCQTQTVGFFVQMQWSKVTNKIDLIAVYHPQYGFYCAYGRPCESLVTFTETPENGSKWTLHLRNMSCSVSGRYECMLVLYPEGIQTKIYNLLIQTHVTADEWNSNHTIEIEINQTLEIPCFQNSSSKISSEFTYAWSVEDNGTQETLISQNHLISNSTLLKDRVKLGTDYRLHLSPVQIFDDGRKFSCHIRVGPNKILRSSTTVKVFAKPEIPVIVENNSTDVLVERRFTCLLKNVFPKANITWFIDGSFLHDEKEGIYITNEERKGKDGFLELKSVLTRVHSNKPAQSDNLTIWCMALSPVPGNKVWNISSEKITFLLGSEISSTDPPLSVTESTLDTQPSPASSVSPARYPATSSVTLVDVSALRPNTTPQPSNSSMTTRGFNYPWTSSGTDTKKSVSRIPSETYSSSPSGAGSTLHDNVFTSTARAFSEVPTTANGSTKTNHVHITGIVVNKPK


Key:
[1] = target: T1, cy-CD96 (soluble, extracellular domain); experiment: BLI (Octet), biotin-CD96 on SA, Fab analyte
Experimental: (§1) The binding affinity of the generated Fab variants of mAb1.v7 for hu-CD96 and cy-CD96 was determined by OCTET (Pall ForteBio) Bio-Layer Interferometry (BLI) binding analysis. The biotinylated hu-CD96 or biotinylated cy-CD96 was diluted to a final concentration 10 µg/mL in experimental buffer (PBS buffer with 0.01% Tween-20) and immobilized on the Streptavidin Capture (SA) biosensors (Pall ForteBio). Three-fold serial dilutions of the mAb1.v7 Fab variants starting at 1 µM as analytes were diluted in the experimental buffer (PBS buffer with 0.01% Tween-20). The biosensors were equilibrated in experimental buffer at 30° C. for ten minutes prior to starting the experiment. The kinetics experiment was performed with the following steps, where the step name, solution and time are listed: Baseline (buffer—60 seconds), Loading (biotinylated antigen—200 seconds), Baseline 2 (buffer—minimum 120 seconds), Association (analyte—200-300 seconds) and Dissociation (buffer—1000 seconds). The resulting BLI signal from analyte association and dissociation from the […] was analyzed using the Octet Data Analysis software (Pall ForteBio). First a reference subtraction was performed on all recorded traces using the reference well (biosensor that underwent same steps as experimental wells but no analyte for the Association step) and then all the traces were aligned to the beginning of the Association step. The entirety of the Association and Dissociation steps were used in a Global fit (minimum of four analyte concentration traces) in a 1:1 binding model to calculate the K_D values for the 16 selected individual mAb1.v7 Fab variants as summarized in Table 9 (below).

[2] = target: T2, hu-CD96 (soluble, isoform 2 …); experiment: BLI (Octet), biotin-CD96 on SA, Fab analyte
Experimental: as §1

[3] = target: T1, cy-CD96 (soluble, extracellular domain); experiment: phage competition ELISA, soluble CD96 vs coated hu-CD96
Experimental: (§2) 192 colonies from most stringent selections (biotinylated 0.1 nM of hu-CD96 or cy-CD96 with 1000× non-biotinylated human or cy-CD96) were grown in 400 µL 2YT with 4 µL helper phage M13KO7 overnight at 37° C. with shaking. After spinning down the pellet, the phage supernatant was diluted 1:1 with 2 nM hu-CD96, 20 nM cy-CD96 and ELISA buffer (0.5% BSA and 0.05% TWEEN®20 in PBS) in total […] and incubated for two hours at room temperature with agitation. The […] of mixture was transferred to hu-CD96 coated plate for 15 min to capture unbound phage. The plate was washed with wash buffer (0.05% TWEEN®20 in PBS), and HRP-conjugated anti-M13 antibody (Sino biological, Cat #11973-MM05-H-50) was added in ELISA buffer for 30 min. […] Enzymatic color development was stopped using TMB stop solution (VWR, Cat #95059-200). Plates were analyzed with a SpectraMax i3X plate reader (Molecular Devices). The % inhibition was calculated by the $OD450$ of wells with hu-CD96/cy-CD96 competitor divided by $OD450$ of wells with buffer alone. The lower % inhibition indicated higher phage $IC50$ against hu-CD96 or cy-CD96.
(§3) Selected top inhibition % phage variants from single spot competition were purified from culture supernatants. The optimal phage concentration was incubated with serially-diluted hu-CD96 or cy-CD96 in ELISA buffer in NUNC F plate for two hours. The […] of the mixture was transferred to hu-CD96 coated wells for 15 min to capture unbound phage. The plate was washed with wash buffer (0.05% TWEEN®20 in PBS), and HRP-conjugated anti-M13 antibody (Sino biological, Cat #11973-MM05-H-50) was added in ELISA buffer for 30 min. The plates were washed and developed as described above. The absorbance at 450 nm was plotted as a function of antigen concentration in solution to determine phage $IC50$.

[4] = target: T2, hu-CD96 (soluble, isoform 2 …); experiment: as above
Experimental: as §2, §3

[5] = target: T1, cy-CD96 (soluble, extracellular domain); experiment: BLI (Octet), biotin-CD96 on SA, Fab analyte
[6] = target: T2, hu-CD96 (soluble, isoform 2 …); experiment: BLI (Octet), biotin-CD96 on SA, Fab analyte; remark: listed apart in the source

Binder | Kd [1] | Kd [2] | IC50 [3] | IC50 [4] | Kd [5] | Kd [6]
mAb1.v7.59 Fab (Fab, V domains shown, also called M34N//N58A/S94L) VH: EVQLVQSGAEVKKPGASVKVSCKASGFTFTNNWNHWVRQAPGQGLEWIGMIHPNSGITAINEKFKNRVTMTTDTSTSTAYMELRSLRSEDTAVYYCRLDGTYEGYFDYWGQGTLVTVSS VL: DIQLTQSPSSLSASVGDRVTITCKASQNVGTAIVWYQQKPGKAPKVLIYSASTRYTGVPSRFSGSGSGTDFTLTISSLQPEDFATYYCQQYSSSPLTFGQGTKVEIK | 271 nM | ~0.1 nM | 1.6 nM | 0.1 nM |  | 
mAb1.v7.NGS6 Fab (Fab, V domains shown, Fab with 8xHis tag; also called T97I) VH: EVQLVQSGAEVKKPGASVKVSCKASGFTFTNNWMHWVRQAPGQGLEWIGMIHPNSGITNINEKFKNRVTMTTDTSTSTAYMELRSLRSEDTAVYYCRSDGIYEGYFDYWGQGTLVTVSS VL: DIQLTQSPSSLSASVGDRVTITCKASQNVGTAIVWYQQKPGKAPKVLIYSASTRYTGVPSRFSGSGSGTDFTLTISSLQPEDFATYYCQQYSSSPLTFGQGTKVEIK |  |  |  |  | 289 nM | 5.32 nM
mAb1.v7.NGS5 Fab (Fab, V domains shown, also called E61R) VH: EVQLVQSGAEVKKPGASVKVSCKASGFTFTNNWMHWVRQAPGQGLEWIGMIHPNSGITNINRKFKNRVTMTTDTSTSTAYMELRSLRSEDTAVYYCRSDGTYEGYFDYWGQGTLVTVSS VL: DIQLTQSPSSLSASVGDRVTITCKASQNVGTAIVWYQQKPGKAPKVLIYSASTRYTGVPSRFSGSGSGTDFTLTISSLQPEDFATYYCQQYSSSPLTFGQGTKVEIK |  |  |  |  | 85 nM | 43.6 nM
mAb1.v7.NGS1 Fab (Fab, V domains shown, also called W33F) VH: EVQLVQSGAEVKKPGASVKVSCKASGFTFTNNFMHWVRQAPGQGLEWIGMIHPNSGITNINEKFKNRVTMTTDTSTSTAYMELRSLRSEDTAVYYCRSDGTYEGYFDYWGQGTLVTVSS VL: DIQLTQSPSSLSASVGDRVTITCKASQNVGTAIVWYQQKPGKAPKVLIYSASTRYTGVPSRFSGSGSGTDFTLTISSLQPEDFATYYCQQYSSSPLTFGQGTKVEIK |  |  |  |  | 271 nM | 49 nM
mAb1.v7.NGS4 Fab (Fab, V domains shown, also called E61H) VH: EVQLVQSGAEVKKPGASVKVSCKASGFTFTNNWMHWVRQAPGQGLEWIGMIHPNSGITNINHKFKNRVTMTTDTSTSTAYMELRSLRSEDTAVYYCRSDGTYEGYFDYWGQGTLVTVSS VL: DIQLTQSPSSLSASVGDRVTITCKASQNVGTAIVWYQQKPGKAPKVLIYSASTRYTGVPSRFSGSGSGTDFTLTISSLQPEDFATYYCQQYSSSPLTFGQGTKVEIK |  |  |  |  | 739 nM | 31.5 nM
mAb1.v7.NGS3 Fab (Fab, V domains shown, also called P52aA) VH: EVQLVQSGAEVKKPGASVKVSCKASGFTFTNNWMHWVRQAPGQGLEWIGMIHANSGITNINEKFKNRVTMTTDTSTSTAYMELRSLRSEDTAVYYCRSDGTYEGYFDYWGQGTLVTVSS VL: DIQLTQSPSSLSASVGDRVTITCKASQNVGTAIVWYQQKPGKAPKVLIYSASTRYTGVPSRFSGSGSGTDFTLTISSLQPEDFATYYCQQYSSSPLTFGQGTKVEIK |  |  |  |  | ~1000 nM | 0.1 nM
mAb1.v7.NGS7 Fab (Fab, V domains shown, also called T97V) VH: EVQLVQSGAEVKKPGASVKVSCKASGFTFTNNWMHWVRQAPGQGLEWIGMIHPNSGITNINEKFKNRVTMTTDTSTSTAYMELRSLRSEDTAVYYCRSDGVYEGYFDYWGQGTLVTVSS VL: DIQLTQSPSSLSASVGDRVTITCKASQNVGTAIVWYQQKPGKAPKVLIYSASTRYTGVPSRFSGSGSGTDFTLTISSLQPEDFATYYCQQYSSSPLTFGQGTKVEIK |  |  |  |  | 383 nM | 5.61 nM
mAb1.v7.NGS2 Fab (Fab, V domains shown, also called M50F) VH: EVQLVQSGAEVKKPGASVKVSCKASGFTFTNNWMHWVRQAPGQGLEWIGFIHPNSGITNINEKFKNRVTMTTDTSTSTAYMELRSLRSEDTAVYYCRSDGTYEGYFDYWGQGTLVTVSS VL: DIQLTQSPSSLSASVGDRVTITCKASQNVGTAIVWYQQKPGKAPKVLIYSASTRYTGVPSRFSGSGSGTDFTLTISSLQPEDFATYYCQQYSSSPLTFGQGTKVEIK |  |  |  |  | ~100 nM | 63 nM
